The values below come from publication PMC3646895, “The Carboxy-Terminal αN Helix of the Archaeal XerA Tyrosine Recombinase Is a Molecular Switch to Control Site-Specific Recombination” (PLoS ONE, 2013).

Where “and” joins values, the source holds several entries; their conditions need not be identical. Equal values may be shown once.

Series [1] deals with XerA recombinase from Pyrococcus abyssi, C-terminal His-tagged (Pyrococcus abyssi) (UniProt Q9V1P5). Put plainly: AUC; sedimentation velocity, 25°C, 0.3 mM (11.8 mg.ml^-1) XerA in 20 mM Tris-HCl pH 7.5, 1 M NaCl, 42,000 rpm; c(s) distribution and self-association model with fitted non-ideality; dimer to monomers.
Series [2] concerns the molecule itself. Put plainly: SDS-PAGE of covalent protein-DNA complexes (assemblies resistant to thermal denaturation); 40 pmol XerA protein with 25 nM 5' end-labeled left half recombination site, 30 mM Tris pH 7.5, 50 mM NaCl, 2 h at 65°C, quenched in Laemmli buffer, 10 min at 100°C, 12% SDS-PAGE, phosphorimaging.

Turning to “XerA recombinase from Pyrococcus abyssi, C-terminal His-tagged (from UniProt Q9V1P5 1-286) (enzyme)”, in series [1], the Kd – broadly, the concentration at which binding is half-saturated – is above 100 µM; the stoichiometry N (in general, a count of units in the complex or per binding partner) is 2 and 4.

B1: XerA-ΔC, XerA deleted for the last 13 amino-acids (αN helix), N-terminal His-tagged (domain or fragment, Pyrococcus abyssi, UniProt Q9V1P5 1-273, looked up)
chain: MEEREERVRDDTIEEFATYLELEGKSRNTVRMYTYYISKFFEEGHSPTARDALRFLAKLKRKGYSTRSLNLVIQALKAYFKFEGLDSEAEKLKTPKMPKTLPKSLTEEEVRRIINAAETLRDRLILLLLYGAGLRVSELCNLRVEDVNFEYGVIVVRGGKGGKDRVVPISESLLSEIKRYLESRNDDSPYLFVEMKRKRKDKLSPKTVWRLVKKYGRKAGVELTPHQLRHSFATHMLERGIDIRIIQELLGHSNLSTTQIYTKVSTKHLKEAV
notes: XerA tyrosine recombinase, Pyrococcus abyssi, deleted for the last 13 amino-acids corresponding to the αN helix alone; In the assay it is covalently linked to the cleaved DNA half site; also called ΔαN helix mutant; source: recombinant, obtained by PCR, expressed and purified following the procedure described for the wild-type enzyme
Consider B1, for which, in series [2], the “fold reduction of the high molecular weight complexes against XerA” value came out at 4 fold.
